# Reference: article PMC12724383
# Tests used:
# Settings in all cases: 50 mM HEPES, 150 mM NaCl, 10% glycerol (pH not given for the reactions; protein storage buffer pH 7.5), room temperature, 15 min (EMSA) or 40 min …
# [1] = test system: T1, DbuR (Pseudomonas putida), ORF:fe707e5d; assay: competition EMSA
# T1 sequence: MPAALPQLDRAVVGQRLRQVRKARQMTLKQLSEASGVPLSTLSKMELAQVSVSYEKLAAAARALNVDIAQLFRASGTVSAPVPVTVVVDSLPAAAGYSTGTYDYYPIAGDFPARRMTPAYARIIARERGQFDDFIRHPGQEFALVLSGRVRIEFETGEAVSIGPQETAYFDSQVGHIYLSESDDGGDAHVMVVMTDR
# [2] = test system: T1, DbuR (Pseudomonas putida), ORF:fe707e5d; assay: EMSA
# [3] = test system: T1, DbuR (Pseudomonas putida), ORF:fe707e5d; assay: DNase I footprinting
sequence,measurement,setting,value
"TCAGGGATCTCGGCATGCGGCGGTGGTCGGGCATCTTACCTTGGACCCTTGCGCATTTCTAAATTCTCATATATTAGAATTCTCATAAATGATAATTGCCTGGCAGGAGCGTGCATGACCCCGACCTACGACA (double strand) [Pdbu 133 bp, unlabeled]",binding,[1],binds
"TCAGGGATCTCGGCATGCGGCGGTGGTCGGGCATCTTACCTTGGACCCTTGCGCATTTCTAAATTCTCATATATTAGAATTCTCATAAATGATAATTGCCTGGCAGGAGCGTGCATGACCCCGACCTACGACA (double strand) [Pdbu 133 bp, 5'-FAM]",binding,[2],binds
"TCAGGGATCTCGGCATGCGGCGGTGGTCGGGCATCTTACCTTGGACCCTTGCGCATTTCTAAATTCTCATATATTAGAATTCTCATAAATGATAATTGCCTGGCAGGAGCGTGCATGACCCCGACCTACGACA (double strand) [Pdbu 133 bp, 5'-FAM/5'-HEX]",binding,[3],binds
